Among the data in patent US20150290235A1, “USE OF SMALL MOLECULE INHIBITORS/ACTIVATORS IN COMBINATION WITH (DEOXY)NUCLEOSIDE OR (DEOXY)NUCLEOTIDE ANALOGS FOR TREATMENT OF CANCER AND HEMATOLOGICAL MALIGNANCIES OR VIRAL INFECTIONS” (AB SCIENCE, priority 2012, published 2015) are Km values, retold here.

For orientation: Km means the concentration of substrate that gives half-maximal velocity.

This series deals with Nc1ccn([C@@H]2O[C@H](CO)[C@@H](O)C2(F)F)c(=O)n1. The series is described as follows: cells, lysate or membranes named. The conditions noted are these: other: ATP donor, 10 nM dCK, no masitinib.

human deoxycytidine kinase (dCK) (Homo sapiens), sequence (chain, as listed by the source): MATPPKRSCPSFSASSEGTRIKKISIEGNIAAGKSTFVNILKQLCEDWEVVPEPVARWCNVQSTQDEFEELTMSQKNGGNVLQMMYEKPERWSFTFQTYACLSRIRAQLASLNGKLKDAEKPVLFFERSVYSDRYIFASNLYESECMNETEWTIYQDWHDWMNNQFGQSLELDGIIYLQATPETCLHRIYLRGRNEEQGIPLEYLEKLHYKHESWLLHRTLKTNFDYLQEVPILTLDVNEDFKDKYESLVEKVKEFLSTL

“human deoxycytidine kinase (dCK) (Homo sapiens)”: the Km stood at 1 ± 0.3 µM.
